# Results from the supplement of paper PMC9170038.
# Test system: K4 kissing-loop RNA reporter
# Experiment: apparent KD of K4 kissing-loop reporter; higher = weaker reporter binding
# Settings: Eterna round: R107; input ligand: none
# Experimental: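 RNA-MaP round R107: designed RNA switches with theophylline, tryptophan, arginine or FMN aptamers are transcribed on-chip within common flanks. They are titrated with a labelled K4 kissing-loop RNA reporter in RNA-MaP buffer (100 mM Tris pH 7.5, 80 mM KCl, 4 mM MgCl2), without ligand or with the indicated ligand. Median apparent KD per design.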
# 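Further: bound reporter read as fluorescence of individual clusters on recovered sequencing chips by microscopy, with normalized cluster intensities fitted with a binding model.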
row,Sequence,apparent KD of K4 kissing-loop reporter
1,UGUAUGUGAUUUGAUACCAGACCAGCUGGUGGAAUCUGAGUGAUGUUCAGGUAGGUUUGGGUCCCUUGGCAGCAAAUCGCAUACU [KL-SSTheoB27],182 nM
2,UCUUUAGUAUAUGAUACCAGCAGUGAGAGACAGGAAGUAUAGUGAUGUUAUAUGAGAGAAUGCCCUUGGCAGCGUGUGCGGUGGG [SSTheophylB.T],93.4 nM
3,UGACUGGAUGGAAGGAGCGCUAAACUCCUAGUGAUGUUAGGGAUACGAGGCAAAGCCUCGAGGCAGGUAGGUCGCCAUCUAGUCU [FiskerMod 24 - Jieux - Same State - Arginine B],124 nM
4,CAUUACGGUCGCUUACCAAACCACUACUUCCGAGGACCGGUACGGCCGCCACUCGCCAGUGAUGUUGGCUCGGGCGGCCGAUUAU [Orrebeante],109 nM
5,UACACGACUCGUGUAAACCGAGGUAACAGGCAGGAUAUGUAACGGAACAGAAGGGCCAUGUUGCGUGUCCAGUGAUGUUGGAUGC [Vetedile],270 nM
6,UAUACUAGACAAGAGAGAAUUCUCUCAAGAGAGGAUAUCCGAAUUCGGAGAAGGCUCGCUAAGUGAUGUUUGGAAUAGUCUAGAA [AK4 SS FMN A],339 nM
7,GGUGCCGGGCAAGGAUAUUAGUCGAGUGAUGUUCGGCGGUCCAAGUCGUUGCGGCGUUAAACCCUUUGAGAAGGUGCCCGGUGCC [#2 Exclusion - FMN B Attempt #1 (HarryS)],193 nM
8,CCGCCGGUCGGAAGGAGCGCACGCCAGAGUGAUGUUCUGGCGCAGGCAUUUAGUGCCCGCGUGCAGGUAGGUCGCCGAUUCUGGC [Arlaaa],423 nM
9,UUUGGUUUCUCGGCCGCCACUCGUUGUCUAUCGGCUUCAGGGAUAUAGUGAUGUUAUGUAUAGAAGAGGACCGGGAGAAGGUUUU [ExTryptoB.Dw],603 nM
10,AUUUUGGUUUAGAGUGAUGUUCCUUGUAUUCGAGGACCGGUACGGCCGCCACUCGGAUAGAAAAGAAAAGAAAUGUUUGAUUUUU [BDazzled - #8 SS Tryptophan A],458 nM
11,CUGACGCUGAUACGGUGGCCGAUGGUCGUGCGAGGACCGGUACGGCCGCCACUCGCAUGAGUGAUGUUCAUGUGUCGUCGUCGUC [#06 K4 Tryptophan A Exclusion],130 nM
12,AAAAUAACCCAGUGAUGUUGGUAUGCAGAUACCAGCGACGAAAGUCGCCCUUGGCAGCUGUGGACGUACAAAAUAAGUACGUCCU,1420 nM
13,UGACAUUGCUCAGAUACCAGACAUGAGCAUCAGCCAUGUGCCAAACGUACAAUAAUAAAUGUCCCUUGGCAGCUGAGCAAUGUCU [TheoBX 14],53.1 nM
14,UUUGGUAUCUCGGCCGCCACUCGUGGGAAAUGGGCCUCAGGGAUAUAGUGAUGUUAUGUAAAGAAGAGGACCGGGAGAAGGAAGG [ExTryptoB.Dk],355 nM
15,AGUGGACGUGUCUGGAGUGAUGUUCUGGAUACCAGACACGAAAGUGUCCCUUGGCAGCCGGAGUGAUGUUCCGGCGUUCACUAAA [Omei KL Theo A Exc B v5],402 nM
16,AGAACUGUCUGAGAUACCAGCUAAGGAGUGAUGUUCCGGCUCGACGAAACGUCGAGCCAUAGCCCUUGGCAGCUCAGACAGUUCA [#27 K4 Theophylline B Same State],378 nM

# Same assay, conditions: Eterna round: R107; input ligand: theophylline 20 uM
row,Sequence,apparent KD of K4 kissing-loop reporter
1,GCUAAGGAGUGAUGUUCCAAGUGAUGUUAACGAGGACCGGUACGGCCGCCACUCGAUACGGCCGGAAAGUAAGAUAAACUACAGC [Same State - Tryptophan A (Freestyle 5)],89.3 nM
2,UGUGAUGAGUAGAGUGAUGUUUUGAAGGAUACCAGAGUGUUGUUAUUCCCUUGGCAGCUUGAGUGAUGUUUGAUGUUGUUGUAGU [zizmullin],246 nM
3,CGAGUCCUGAGGAGUGAUGUUCCUCGGCCACGAGGACCGGUACGGCCGCCACUCGUUACUCGGGCUUAGCAGCAAGCACUAAGCU [Acesote],302 nM
4,GUUACGCAUGGAAGGAGCGCACUCCGAUUGGUCGACACAGUGAUGUUGUGGUUCGUUCGAAUGCAGGUAGGUCGCCAUGUGUAAC [Ex Arginine B K4 18],145 nM
5,UGGAGUUGACGAAAAGUCAACUCCCGAGAAGGAGCGGACGAAAGUCCAGGUAGGUCGCUCGCUACCAGUGAUGUUGGUACUCAAA,192 nM
6,UGUAAGCGCGUAGAUACCAGCAGACGAGUGAUGUUCAAAAGAUUAAGGAAAAGAAAGUAAUGCCCUUGGCAGCUAAUCAUAAGCG [whbob_Ex_Theo_B_sa92],517 nM
7,AUAUGCUUAGCGGCCGCCACUCCAAUUGGCCGAAAGGCCUGAUACCGAGUGAUGUUCGGUUGGAGGAGGACCGGGCUAGGCGUAU [#2 Exclusion - Tryptophan B Attempt #1 (HarryS)],149 nM
8,GGAUAGGACAGAGGAUAUGGUAGCUAGGCAAGAAUAACUUGUCUAGCAUCCAUGAGGAGUGAUGUUCCAGAAGGCUGUCCUAUCG [FmnBX 5 - #SwitchBubble #StaticStem],150 nM
9,AAUUUAUAUUUAUUCUUUAAUUGUUCAGAAGGAGCGUGAAUUAUCACAGGUAGGUCGCUGAGCUAGUGAUGUUAGCUAUAUACUA [JR_ExcArginiA_Sub008],82.8 nM
10,GGUAGCAUGGCGGCCGCCACUCUUCAUUAGUGAUGUUAAUGCCGAGUGCGCUAACUCCAACUGGAGAGGACCGGGCCAUGCUACC,440 nM
11,GGGAAUUACGGAGGAUAUGCACUGAGGAGGAGAAUAUAGUGAUGUUAUAUAAGAGGAAGGAGAAGAGUAGAAGGCCGUGGAAAGG [SSFMNB.D],217 nM
12,AGCUCAGAGUGACUCGAUAAGAGUCACAAACGAGGACCGGUACGGCCGCCACUCGAAAUAAGGAGAGUGAUGUUCUCGCUGAGCA [FiskerMod 8 - Jieux - Same State Tryptophan A],35.1 nM
13,CCUAUCUCAUACGAUACCAGUCAAAUAAAUUAUAACGAGUGAUGUUCGAAAUGCCAUCACGACCCUUGGCAGCGUAUGGGAUAGG [Ex Theophylline B K4 1],186 nM
14,AAAUAAAUCGGAGGAUAUCCUUCCCACGUCGAAGUACCGUGCUUGAUGGAGUGAUGUUCGAUCAGAGGAGAAGGCCGAUAAAUAA [Same State FMN B GF20],924 nM
15,GGUGUUGUUUGUGCUGUUUUCUUUGUUUCUCGAGGACCGGUACGGCCGCCACUCGAGUGAUGUUUGGGUAGCGAUGUUUGUUAGU [Bdazzled - #2 - Exc. Tryptophan A],383 nM
16,ACGUAGUACGUAGGAUAUCAGAGAUCAGUUAGUGAGAUCGAGUGAUGUUCGAUCAUGUGUUCAUUUUGAGAAGGAUGUAGUAGGA [KL-SSFMN-B6],358 nM
17,UGUAUGUGAUUUGAUACCAGACCAGCUGGUGGAAUCUGAGUGAUGUUCAGGUAGGUUUGGGUCCCUUGGCAGCAAAUCGCAUACU [KL-SSTheoB27],181 nM
18,UCUUUAGUAUAUGAUACCAGCAGUGAGAGACAGGAAGUAUAGUGAUGUUAUAUGAGAGAAUGCCCUUGGCAGCGUGUGCGGUGGG [SSTheophylB.T],119 nM
19,UGACUGGAUGGAAGGAGCGCUAAACUCCUAGUGAUGUUAGGGAUACGAGGCAAAGCCUCGAGGCAGGUAGGUCGCCAUCUAGUCU [FiskerMod 24 - Jieux - Same State - Arginine B],147 nM
20,CAUUACGGUCGCUUACCAAACCACUACUUCCGAGGACCGGUACGGCCGCCACUCGCCAGUGAUGUUGGCUCGGGCGGCCGAUUAU [Orrebeante],97.9 nM
21,UACACGACUCGUGUAAACCGAGGUAACAGGCAGGAUAUGUAACGGAACAGAAGGGCCAUGUUGCGUGUCCAGUGAUGUUGGAUGC [Vetedile],272 nM
22,UAUACUAGACAAGAGAGAAUUCUCUCAAGAGAGGAUAUCCGAAUUCGGAGAAGGCUCGCUAAGUGAUGUUUGGAAUAGUCUAGAA [AK4 SS FMN A],319 nM
23,GGUGCCGGGCAAGGAUAUUAGUCGAGUGAUGUUCGGCGGUCCAAGUCGUUGCGGCGUUAAACCCUUUGAGAAGGUGCCCGGUGCC [#2 Exclusion - FMN B Attempt #1 (HarryS)],195 nM
24,CCGCCGGUCGGAAGGAGCGCACGCCAGAGUGAUGUUCUGGCGCAGGCAUUUAGUGCCCGCGUGCAGGUAGGUCGCCGAUUCUGGC [Arlaaa],234 nM
